Among the data in US20220144956A1 (published 2022) are EC50 and Kd values, retold here.

Where a chain is given by its changes, count along the chain named.

The target of assay [1] is Unstimulated Cyno CD4 T cells (cynomolgus monkey). Description: FACS cell binding; CD4 T cells; avid.
Assay [2] addresses Unstimulated Cyno CD8 T cells (cynomolgus monkey). As to the kind of experiment: FACS cell binding; CD8 T cells; avid.
Assay [3] addresses Unstimulated Cyno CD3+ cells (cynomolgus monkey). As to the kind of experiment: FACS cell binding; CD3+ cells; avid.
For assay [4], the target named is T1, His-tagged human CD5 antigen (human, UniProt P06127 25-372).
T1 chain: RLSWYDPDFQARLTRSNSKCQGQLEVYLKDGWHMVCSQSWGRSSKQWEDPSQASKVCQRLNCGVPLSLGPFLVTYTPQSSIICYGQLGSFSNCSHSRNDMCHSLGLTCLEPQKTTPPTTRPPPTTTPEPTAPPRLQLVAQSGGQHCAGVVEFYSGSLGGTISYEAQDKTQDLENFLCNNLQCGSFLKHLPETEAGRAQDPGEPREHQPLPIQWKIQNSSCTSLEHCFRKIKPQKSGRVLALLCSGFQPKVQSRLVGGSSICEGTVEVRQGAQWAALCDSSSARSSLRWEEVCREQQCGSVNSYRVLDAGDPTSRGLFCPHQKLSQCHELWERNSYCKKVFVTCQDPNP
As to the kind of experiment: Octet.

Another assay deals with Cyno (cynomolgus monkey). As to the kind of experiment: Octet. In general terms: In BLI a coated tip is dipped into the sample, and binding shifts an interference pattern.
Assay [5] has as its target human TGFßRII (antigen of the Octet experiments) (human, UniProt P37173 23-166).
For assay [6], the target named is αCD5 (Clone 8) x αTGFßRII. Description: Octet.
For assay [7], the target named is αCD5 (Clone 6) x αTGFßRII. As to the kind of experiment: Octet.
Assay [8] has as its target αCD5 (Clone 1) x αTGFßRII. Description: Octet.
Assay [9] concerns the target αCD5 (Clone 10) x αTGFßRII. Description: Octet.
Assay [10] deals with αCD5 (Clone 5) x αTGFßRII. Description: Octet.
Assay [11] deals with αCD5 (Clone 9) x αTGFßRII. As to the kind of experiment: Octet.
Assay [12] addresses αCD5 (Clone 4) x αTGFßRII. As to the kind of experiment: Octet.
In assay [13] the target is αCD5 (Clone 3) x αTGFßRII. As to the kind of experiment: Octet.
The target of assay [14] is αCD5 (Clone 7) x αTGFßRII. Description: Octet.
The target in assay [15] is αCD5 (Clone 11) x αTGFßRII. Description: Octet.

Chain of human TGFßRII (antigen of the Octet experiments) (P37173 23-166): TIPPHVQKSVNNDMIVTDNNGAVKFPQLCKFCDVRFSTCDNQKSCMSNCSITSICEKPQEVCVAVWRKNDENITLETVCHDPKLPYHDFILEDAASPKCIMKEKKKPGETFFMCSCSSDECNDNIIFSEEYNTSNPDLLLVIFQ

B1: XENP35401 anti-CD5 clone 5D7 Bivalent (antibody, V domains shown)
VH: EVQLVESGGGVVQPGRSLRLSCTFSGFSLSTSGMGVGWIRQAPGKGLEWVAHIWWDDDVYYNPSLKSRLTITKDASTDTVYMELSSLRSEDTAVYYCVRRRATGTGFDYWGQGTLVTVSS
VL: NIVMTQSPSSLSASVGDRVTITCQASQDVGTAVAWYQQKPDQSPKLLIYWTSTRHTGVPDRFTGSGSGTDFTLTISSLQPEDIATYFCHQYNSYNTFGSGTKLEIKR
The term EC50 denotes the midpoint of the concentration-response curve. The low end stands for a more potent agent, the high end for a less potent agent. Regarding B1, the EC50 stood at 0.584 µg/mL in [1], 0.415 µg/mL in [2] and 0.508 µg/mL in assay [3].

B2: XENP37388 (bispecific antibody)
heavy: QVTLKESGAELVRPGASVKLSCKASGYSFTSYWMNWVKQRPGQGLEWIGMIHPSDSETRLNQKFKDKATLTVDKSSSTAYMQLSSPTSEDSAVYYCARWGDHDDAMDFWGQGTMVTVSSASTKGPSVFPLAPSSKSTSGGTAALGCLVKDYFPEPVTVSWNSGALTSGVHTFPAVLQSSGLYSLSSVVTVPSSSLGTQTYICNVNHKPSDTKVDKKVEPKSCDKTHTCPPCPAPPVAGPSVFLFPPKPKDTLMISRTPEVTCVVVDVKHEDPEVKFNWYVDGVEVHNAKTKPREEEYNSTYRVVSVLTVLHQDWLNGKEYKCKVSNKALPAPIEKTISKAKGQPREPQVYTLPPSREEMTKNQVSLTCDVSGFYPSDIAVEWESDGQPENNYKTTPPVLDSDGSFFLYSKLTVDKSRWEQGDVFSCSVMHEALHNHYTQKSLSLSPGK
scFv-Fc: QLQVQESGPGLVKPSETLSLTCTVSGGSISNSYFSWGWIRQPPGKGLEWIGSFYYGEKTYYNPSLKSRATISIDTSKSQFSLKLSSVTAADTAVYYCPRGPTVIRGVIDSWGQGTLVTVSSGKPGSGKPGSGKPGSGKPGSEIVLTQSPATLSLSPGERATLSCRASQSVRSYLAWYQQKPGQAPRLLIYDASNRATGIPARFSGSGSGTDFTLTISSLEPEDFAVYYCQQRSNWPPTFGQGTKVEIKEPKSSDKTHTCPPCPAPPVAGPSVFLFPPKPKDTLMISRTPEVTCVVVDVKHEDPEVKFNWYVDGVEVHNAKTKPREEQYNSTYRVVSVLTVLHQDWLNGKEYKCKVSNKALPAPIEKTISKAKGQPREPQVYTLPPSREQMTKNQVKLTCLVKGFYPSDIAVEWESNGQPENNYKTTPPVLDSDGSFFLYSKLTVDKSRWQQGNVFSCSVMHEALHNHYTQKSLSLSPGK
light: DIVLTQSPASLSASVGESVTITCRPSENIYGYFAWYQQRQGKSPQLLVYNAKTLAEGVPSRFSGSGSGTHFSLKINSLQPEDFGTYYCQHHYGTPFTFGPGTKVDIKRTVAAPSVFIFPPSDEQLKSGTASVVCLLNNFYPREAKVQWKVDNALQSGNSQESVTEQDSKDSTYSLSSTLTLSKADYEKHKVYACEVTHQGLSSPVTKSFNRGEC
A word on the Kd: it is the constant that tells how readily two partners part at equilibrium. The molecule B2 came in with a Kd in [4] of 2.75 nM.

B3: XENP35399 – αCD5 (5D7) x αTGFßRII (bispecific antibody)
heavy: EVQLVESGGGVVQPGRSLRLSCTFSGFSLSTSGMGVGWIRQAPGKGLEWVAHIWWDDDVYYNPSLKSRLTITKDASTDTVYMELSSLRSEDTAVYYCVRRRATGTGFDYWGQGTLVTVSSASTKGPSVFPLAPSSKSTSGGTAALGCLVKDYFPEPVTVSWNSGALTSGVHTFPAVLQSSGLYSLSSVVTVPSSSLGTQTYICNVNHKPSDTKVDKKVEPKSCDKTHTCPPCPAPPVAGPSVFLFPPKPKDTLMISRTPEVTCVVVDVKHEDPEVKFNWYVDGVEVHNAKTKPREEEYNSTYRVVSVLTVLHQDWLNGKEYKCKVSNKALPAPIEKTISKAKGQPREPQVYTLPPSREEMTKNQVSLTCDVSGFYPSDIAVEWESDGQPENNYKTTPPVLDSDGSFFLYSKLTVDKSRWEQGDVFSCSVMHEALHNHYTQKSLSLSPGK
scFv-Fc: B2 scFv-Fc
light: NIVMTQSPSSLSASVGDRVTITCQASQDVGTAVAWYQQKPDQSPKLLIYWTSTRHTGVPDRFTGSGSGTDFTLTISSLQPEDIATYFCHQYNSYNTFGSGTKLEIKRTVAAPSVFIFPPSDEQLKSGTASVVCLLNNFYPREAKVQWKVDNALQSGNSQESVTEQDSKDSTYSLSSTLTLSKADYEKHKVYACEVTHQGLSSPVTKSFNRGEC
In turn, B3 returned a Kd in the assay with Cyno of 72 nM.

B4: XENP35399 (bispecific antibody)
heavy: B3 heavy
scFv-Fc: B2 scFv-Fc
light: B3 light
For the molecule B4, the dissociation constant Kd in [4] stood at 1.69 nM; in assay [5], 0.97 nM.

B5: XENP36132 (bispecific antibody)
heavy: B3 heavy
scFv-Fc: B2 scFv-Fc with S35Y, V103M
light: B3 light
In turn, B5 came in with a Kd in [5] of 6.1 nM. This lies in the single-digit nanomolar range.

B6: XENP37385 (bispecific antibody)
heavy: EVQLKESGAELVRPGGSVKISCKGSGYTFTNFAIHWVKQSHIKTLEWIGLISTSSGDVSYNQKFKDKATMTVDKSSSTAYMELARLTSEDSAIYYCARHYGANNYFDYWGQGTLVTVSSASTKGPSVFPLAPSSKSTSGGTAALGCLVKDYFPEPVTVSWNSGALTSGVHTFPAVLQSSGLYSLSSVVTVPSSSLGTQTYICNVNHKPSDTKVDKKVEPKSCDKTHTCPPCPAPPVAGPSVFLFPPKPKDTLMISRTPEVTCVVVDVKHEDPEVKFNWYVDGVEVHNAKTKPREEEYNSTYRVVSVLTVLHQDWLNGKEYKCKVSNKALPAPIEKTISKAKGQPREPQVYTLPPSREEMTKNQVSLTCDVSGFYPSDIAVEWESDGQPENNYKTTPPVLDSDGSFFLYSKLTVDKSRWEQGDVFSCSVMHEALHNHYTQKSLSLSPGK
scFv-Fc: B2 scFv-Fc
light: EIVLTQSPTIMSASPGEQVTMTCRTNSSVSSSYLHWYQQKSGASPKLWIYGTSNLASGVPTRFSGSGSGTSYSLTISSVEAGDAATYFCQQYSGYPLTFGGGTKVEIKRTVAAPSVFIFPPSDEQLKSGTASVVCLLNNFYPREAKVQWKVDNALQSGNSQESVTEQDSKDSTYSLSSTLTLSKADYEKHKVYACEVTHQGLSSPVTKSFNRGEC
In [4], B6 had a Kd of 6.67 nM.

B7: Human (receptor)
chain: T1 chain
Consider B7, for which the dissociation constant (Kd) in assay [6] was 8.72 nM; in assay [7], 11.1 nM; in assay [8], 7.91 nM; in assay [9], 1.24 nM; in assay [10], 12.9 nM; in assay [11] it was 2.99 nM. The Kd in [12] was determined as 7.03 nM; in assay [13] it was 1.53 nM; in assay [14] it was 2.05 nM; in assay [15] it was 18.6 nM.
